This passage reports protein stability index results from the supplement of paper PMC10567573.

The labels stand for the following.
B1: DCAF4 (parent)
chain: PGIDRPGMLCSFRIPGAWSCAWSL
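Also: lentivirally expressed fusions sorted by FACS into six bins by GFP to DsRed ratio, PSI derived from sequencing read proportions per bin multiplied by bin number.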

In this series the parent is B1. Kind of series: protein stability index of a GFP-peptide fusion (GPS, HEK-293T) (PSI 1-6); higher = more stable. Conditions: c terminus: a fixed tail appended.
For PGIDRPGMNCSFRIPGAWSCAWSL [L9N], the protein stability index stood at 2.9.

As for PGIDRPGMWCSFRIPGAWSCAWSL [L9W], the protein stability index came out at 2.82.

With PGIDRPGMLCSFRKPGAWSCAWSL [I14K], the protein stability index came to 1.68.

For PGIDRPGMLCSFRWPGAWSCAWSL [I14W], the protein stability index was 2.12.

As for PGIDRPGMLCSFRGPGAWSCAWSL [I14G], the protein stability index worked out at 1.54.

Consider PGIDRPGMLCSFRLPGAWSCAWSL [I14L], for which the protein stability index came out at 2.47.

On to PGIDRPGMLCSFRFPGAWSCAWSL [I14F], for which the protein stability index is 2.32.

Consider PGIDRPGMLCSFRCPGAWSCAWSL [I14C], for which the protein stability index is 1.79.

PGIDRPGMLCSFRHPGAWSCAWSL [I14H]: the protein stability index was determined as 2.46.

With PGIDRPGMLCSFRRPGAWSCAWSL [I14R], the protein stability index was 3.12.

Take PGIDRPGMLCSFRNPGAWSCAWSL [I14N]: the protein stability index turned out to be 1.5.

PGIDRPGMLCSFRQPGAWSCAWSL [I14Q]: the protein stability index amounted to 2.64.

For the variant PGIDRPGMLCSFRDPGAWSCAWSL [I14D], the protein stability index was determined as 2.83.

Take PGIDRPGMLCSFRMPGAWSCAWSL [I14M]: the protein stability index came to 1.82.

On to PGIDRPGMLCSFRYPGAWSCAWSL [I14Y], for which the protein stability index worked out at 2.14.

Turning to PGIDRPGMLCSFREPGAWSCAWSL [I14E], the protein stability index came to 1.76.

Consider PGIDRPGMLCSFRSPGAWSCAWSL [I14S], for which the protein stability index was found to be 2.65.

As to PGIDRPGMLCSFRAPGAWSCAWSL [I14A], the protein stability index worked out at 1.77.

PGIDRPGMLCSFRIPKAWSCAWSL [G16K]: the protein stability index is 3.56.

With PGIDRPGMLCSFRIPHAWSCAWSL [G16H], the protein stability index was found to be 4.24.

For the variant PGIDRPGMLCSFRIPFAWSCAWSL [G16F], the protein stability index is 2.83.

On to PGIDRPGMLCSFRIPIAWSCAWSL [G16I], for which the protein stability index was determined as 3.24.

Regarding PGIDRPGMLCSFRIPDAWSCAWSL [G16D], the protein stability index came to 2.18.

With PGIDRPGMLCSFRIPEAWSCAWSL [G16E], the protein stability index was determined as 3.31.

With PGIDRPGMLCSFRIPCAWSCAWSL [G16C], the protein stability index amounted to 2.39.

Regarding PGIDRPGMLKSFRIPGAWSCAWSL [C10K], the protein stability index came out at 2.77.

In the case of PGIDRPGMLASFRIPGAWSCAWSL [C10A], the protein stability index amounted to 1.68.

With PGIDRPGMLDSFRIPGAWSCAWSL [C10D], the protein stability index stood at 2.17.

As to PGIDRPGMLWSFRIPGAWSCAWSL [C10W], the protein stability index is 3.64.

Regarding PGIDRPGMLNSFRIPGAWSCAWSL [C10N], the protein stability index came out at 2.65.

Turning to PGIDRPGMLSSFRIPGAWSCAWSL [C10S], the protein stability index stood at 2.9.

On to PGIDRPGMLQSFRIPGAWSCAWSL [C10Q], for which the protein stability index was determined as 1.58.

As for PGIDRPGMLMSFRIPGAWSCAWSL [C10M], the protein stability index is 3.1.

With PGIDRPGMLPSFRIPGAWSCAWSL [C10P], the protein stability index is 2.2.

As to PGIDRPGMLYSFRIPGAWSCAWSL [C10Y], the protein stability index is 3.23.

For the variant PGIDRPGMLGSFRIPGAWSCAWSL [C10G], the protein stability index stood at 2.12.

As for PGIDRPGMLESFRIPGAWSCAWSL [C10E], the protein stability index was 2.82.

For PGIDRPGMLISFRIPGAWSCAWSL [C10I], the protein stability index is 3.54.

As to PGIDRPGMLFSFRIPGAWSCAWSL [C10F], the protein stability index came to 3.57.

For PGIDRPGMLHSFRIPGAWSCAWSL [C10H], the protein stability index was determined as 3.98.

With PGIDRPGGLCSFRIPGAWSCAWSL [M8G], the protein stability index came out at 3.31.

For PGIDRPGALCSFRIPGAWSCAWSL [M8A], the protein stability index was determined as 2.31.

On to PGIDRPGTLCSFRIPGAWSCAWSL [M8T], for which the protein stability index was found to be 3.54.

As to PGIDRPGLLCSFRIPGAWSCAWSL [M8L], the protein stability index worked out at 3.01.

Consider PGIDRPGSLCSFRIPGAWSCAWSL [M8S], for which the protein stability index was 3.62.

Consider PGIDRPGKLCSFRIPGAWSCAWSL [M8K], for which the protein stability index was 2.34.

With PGIDRPGCLCSFRIPGAWSCAWSL [M8C], the protein stability index was found to be 2.66.

As to PGIDRPGYLCSFRIPGAWSCAWSL [M8Y], the protein stability index amounted to 1.56.

Take PGIDRPGRLCSFRIPGAWSCAWSL [M8R]: the protein stability index amounted to 1.99.

For the variant PGIDRPGNLCSFRIPGAWSCAWSL [M8N], the protein stability index came out at 2.11.

In the case of PGIDRPGHLCSFRIPGAWSCAWSL [M8H], the protein stability index is 2.83.

For PGIDRPGELCSFRIPGAWSCAWSL [M8E], the protein stability index is 2.42.

On to PGIDRPGILCSFRIPGAWSCAWSL [M8I], for which the protein stability index amounted to 3.

PGIDRPGMLCSNRIPGAWSCAWSL [F12N]: the protein stability index was found to be 2.87.

For PGIDRPGMLCSGRIPGAWSCAWSL [F12G], the protein stability index was determined as 2.29.

With PGIDRPGMLCSKRIPGAWSCAWSL [F12K], the protein stability index was 1.79.

Take PGIDRPGMLCSLRIPGAWSCAWSL [F12L]: the protein stability index stood at 2.62.

Consider PGIDRPGMLCSTRIPGAWSCAWSL [F12T], for which the protein stability index was found to be 2.12.

Regarding PGIDRPGMLCSVRIPGAWSCAWSL [F12V], the protein stability index came to 3.38.

Turning to PGIDRPGMLCSQRIPGAWSCAWSL [F12Q], the protein stability index was found to be 2.67.

For the variant PGIDRPGMLCSIRIPGAWSCAWSL [F12I], the protein stability index was 2.26.

For PGIDRPGMLCSERIPGAWSCAWSL [F12E], the protein stability index was determined as 2.5.

As to PGIDRPGMLCSWRIPGAWSCAWSL [F12W], the protein stability index worked out at 4.14.

As to PGIDRPGMLCSHRIPGAWSCAWSL [F12H], the protein stability index came to 2.68.

For the variant PGIDRPGMLCSDRIPGAWSCAWSL [F12D], the protein stability index worked out at 2.19.

On to PGIDRPGMLCSSRIPGAWSCAWSL [F12S], for which the protein stability index turned out to be 2.7.

Turning to PGIDRPGMLCSCRIPGAWSCAWSL [F12C], the protein stability index came to 3.41.

Take PGIDRPGMLCSPRIPGAWSCAWSL [F12P]: the protein stability index was 3.71.

For PGIDRPGMLCSFSIPGAWSCAWSL [R13S], the protein stability index was found to be 2.59.

Consider PGIDRPGMLCSFCIPGAWSCAWSL [R13C], for which the protein stability index came out at 2.03.

Regarding PGIDRPGMLCSFEIPGAWSCAWSL [R13E], the protein stability index stood at 3.65.

As to PGIDRPGMLCSFTIPGAWSCAWSL [R13T], the protein stability index was 3.39.

Turning to PGIDRPGMLCSFVIPGAWSCAWSL [R13V], the protein stability index turned out to be 2.94.

For PGIDRPGMLCSFLIPGAWSCAWSL [R13L], the protein stability index worked out at 3.69.

PGIDRPGMLCSFIIPGAWSCAWSL [R13I]: the protein stability index was found to be 3.22.

Turning to PGIDRPGMLCSFGIPGAWSCAWSL [R13G], the protein stability index is 2.33.

Take PGIDRPGMLCSFFIPGAWSCAWSL [R13F]: the protein stability index is 2.68.

In the case of PGIDRPGMLCSFYIPGAWSCAWSL [R13Y], the protein stability index stood at 2.9.

Consider PGIDRPGMLCSFHIPGAWSCAWSL [R13H], for which the protein stability index amounted to 2.34.

As to PGIDRPGMLCSFPIPGAWSCAWSL [R13P], the protein stability index is 3.03.

Take PGIDRPGMLCSFDIPGAWSCAWSL [R13D]: the protein stability index was determined as 1.97.

Regarding PGIDRPGMLCSFRIKGAWSCAWSL [P15K], the protein stability index came out at 3.5.

In the case of PGIDRPGMLCSFRIYGAWSCAWSL [P15Y], the protein stability index was found to be 3.12.

As for PGIDRPGMLCSFRINGAWSCAWSL [P15N], the protein stability index was determined as 2.56.

Regarding PGIDRPGMLCSFRIFGAWSCAWSL [P15F], the protein stability index stood at 3.83.

For the variant PGIDRPGMLCSFRIMGAWSCAWSL [P15M], the protein stability index amounted to 2.89.

As for PGIDRPGMLCSFRIIGAWSCAWSL [P15I], the protein stability index turned out to be 2.28.

PGIDRPGMLCSFRIEGAWSCAWSL [P15E]: the protein stability index is 3.99.

As to PGIDRPGMLCSFRICGAWSCAWSL [P15C], the protein stability index is 2.96.

As for PGIDRPGMLCSFRISGAWSCAWSL [P15S], the protein stability index came out at 2.74.

Take PGIDRPGMLCSFRIQGAWSCAWSL [P15Q]: the protein stability index worked out at 4.94.

As to PGIDRPGMLCSFRIHGAWSCAWSL [P15H], the protein stability index was 3.44.

For PGIDRPGMLCSFRILGAWSCAWSL [P15L], the protein stability index was 2.04.

As to PGIDRPGMLCSFRIVGAWSCAWSL [P15V], the protein stability index is 1.8.
